T1: GST-TβRI intracellular domain fusion protein
T1 chain: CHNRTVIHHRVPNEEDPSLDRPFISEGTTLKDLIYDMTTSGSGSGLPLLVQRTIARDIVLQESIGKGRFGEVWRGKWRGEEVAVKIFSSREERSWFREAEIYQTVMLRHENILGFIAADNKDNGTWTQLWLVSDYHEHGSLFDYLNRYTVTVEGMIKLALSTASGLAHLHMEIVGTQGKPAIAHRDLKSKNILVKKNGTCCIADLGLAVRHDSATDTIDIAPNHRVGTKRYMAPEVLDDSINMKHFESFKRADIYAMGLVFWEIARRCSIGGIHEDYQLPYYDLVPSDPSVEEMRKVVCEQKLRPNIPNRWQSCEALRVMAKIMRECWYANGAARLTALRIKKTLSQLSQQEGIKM

T2: type I receptor of transforming growth factor beta (TβRI), endogenous, full length
T2 chain: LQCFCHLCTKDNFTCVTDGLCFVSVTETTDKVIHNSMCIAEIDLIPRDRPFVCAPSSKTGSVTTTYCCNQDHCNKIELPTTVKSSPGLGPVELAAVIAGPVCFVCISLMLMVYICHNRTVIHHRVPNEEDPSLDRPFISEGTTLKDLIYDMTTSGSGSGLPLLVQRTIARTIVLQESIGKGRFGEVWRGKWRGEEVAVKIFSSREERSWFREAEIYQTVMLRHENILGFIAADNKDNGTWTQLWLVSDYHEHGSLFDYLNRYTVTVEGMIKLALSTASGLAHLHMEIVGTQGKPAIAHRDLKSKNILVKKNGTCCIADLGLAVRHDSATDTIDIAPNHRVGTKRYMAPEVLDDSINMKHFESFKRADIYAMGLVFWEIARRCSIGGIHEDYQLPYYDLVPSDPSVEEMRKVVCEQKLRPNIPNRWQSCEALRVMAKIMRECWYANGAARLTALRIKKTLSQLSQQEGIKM


How the values were obtained:
[1] = biological target: T1, GST-TβRI intracellular domain fusion …
[2] = biological target: T2, type I receptor of transforming growth …

Row | Protein | polyubiquitination of TβRI in an in vitro ubiquitination assay [1] | Lys63-linked polyubiquitination of TβRI and formation of the TβRI ICD after TRAF6 siRNA [2]
1 | recombinant glutathione-S-transferase-tagged TRAF6 (GST-TRAF6) fusion protein (protein) MSLLNCENSCGSSQSESDCCVAMASSCSAVTKDDSVGGTASTGNLSSSFMEEIQGYDVEFDPPLESKYECPICLMALREAVQTPCGHRFCKACIIKSIRDAGHKCPVDNEILLENQLFPDNFAKREILSLMVKCPNEGCLHKMELRHLEDHQAHCEFALMDCPQCQRPFQKFHINIHILKDCPRRQVSCDNCAASMAFEDKEIHDQNCPLANVICEYCNTILIREQMPNHYDLDCPTAPIPCTFSTFGCHEKMQRNHLARHLQENTQSHMRMLAQAVHSLSVIPDSGYISEVRNFQETIHQLEGRLVRQDHQIRELTAKMETQSMYVSELKRTIRTLEDKVAEIEAQQCNGIYIWKIGNFGMHLKCQEEEKPVVIHSPGFYTGKPGYKLCMRLHLQLPTAQRCANYISLFVHTMQGEYDSHLPWPFQGTIRLTILDQSEAPVRQNHEEIMDAKPELLAFQRPTIPRNPKGFGYVTFMHLEALRQRTFIKDDTLLVRCEVSTRFDMGSLRREGFQPRSTDAGV | TRAF6 was shown to induce the polyubiquitination of TβRI in an in vitro ubiquitination assay | 
2 | tumor necrosis factor receptor-associated factor 6 (TRAF6), endogenous (protein) MSLLNCENSCGSSQSESDCCVAMASSCSAVTKDDSVGGTASTGNLSSSFMEEIQGYDVEFDPPLESKYECPICLMALREAVQTPCGHRFCKACIIKSIRDAGHKCPVDNEILLENQLFPDNFAKREILSLMVKCPNEGCLHKMELRHLEDHQAHCEFALMDCPQCQRPFQKFHINIHILKDCPRRQVSCDNCAASMAFEDKEIHDQNCPLANVICEYCNTILIREQMPNHYDLDCPTAPIPCTFSTFGCHEKMQRNHLARHLQENTQSHMRMLAQAVHSLSVIPDSGYISEVRNFQETIHQLEGRLVRQDHQIRELTAKMETQSMYVSELKRTIRTLEDKVAEIEAQQCNGIYIWKIGNFGMHLKCQEEEKPVVIHSPGFYTGKPGYKLCMRLHLQLPTAQRCANYISLFVHTMQGEYDSHLPWPFQGTIRLTILDQSEAPVRQNHEEIMDAKPELLAFQRPTIPRNPKGFGYVTFMHLEALRQRTFIKDDTLLVRCEVSTRFDMGSLRREGFQPRSTDAGV |  | a knock-down of endogenous TRAF6 in PC-3U cells with an anti-TRAF6 siRNA also resulted in loss of both Lys63-linked polyubiquitination in TβRI and the formation of the TβRI ICD in response to TGFβ stimulation

From patent US20140140998
